Publication PMC6352652 (2018)

Assays:
[1] = target: T1, FBG domain of rat tenascin-C (rat); test: SPR; 37°C
T1 chain: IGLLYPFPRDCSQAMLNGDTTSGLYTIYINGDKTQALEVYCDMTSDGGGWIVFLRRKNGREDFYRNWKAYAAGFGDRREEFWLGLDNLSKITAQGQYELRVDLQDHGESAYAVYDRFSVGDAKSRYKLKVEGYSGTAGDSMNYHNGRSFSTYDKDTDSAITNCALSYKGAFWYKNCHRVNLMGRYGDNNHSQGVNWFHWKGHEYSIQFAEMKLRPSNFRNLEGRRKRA

[2] = target: T2, fibrinogen-like globe (FBG) domain of human tenascin-C (human, UniProt P24821 1975-2201); test: SPR; 37°C
T2 chain: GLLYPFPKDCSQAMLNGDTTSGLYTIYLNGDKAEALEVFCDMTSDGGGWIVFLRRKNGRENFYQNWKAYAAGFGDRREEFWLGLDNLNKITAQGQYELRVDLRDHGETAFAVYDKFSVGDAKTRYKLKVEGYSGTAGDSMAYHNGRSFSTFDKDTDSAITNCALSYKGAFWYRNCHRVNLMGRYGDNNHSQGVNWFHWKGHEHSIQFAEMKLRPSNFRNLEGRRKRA

- koff [1]: 0.00473 s⁻¹
- koff [2]: 0.00083 s⁻¹
B1: monoclonal antibody C3 (antibody, V domains shown)
VH: QVQLVESGGGLVQPGRSLRLSCAASGFTFDDYAMHWVRQAPGKGLEWVSGISGSGGSTYYADSVKGRFTISRDNAKNSLYLQMNSLRAEDTALYYCAKSYQSDEDAFDIWGQGTMVTVSS
VL: DIQMTQSPASLPTPVGDRVTITCRASQYIQGFLNWYQQKPGKAPKLLIYDASNLETGVPSRFSGSGSGTDFTLTISSLQPEDFATYYCQQSYSTPQTFGQGTKVDIK
